Test results reported in US20220072144A1 (published 2022).

How the values were obtained:
Flag-HER3 (WT) = molecular target: T1, Flag-HER3 (WT) (human, UniProt P21860 1-1342); experiment: flow cytometry on HER3-stably expressing MDA-MB-231 cells without HER2 overexpression, 0.1 to 100 nM
T1 construct: Flag-tagged full-length HER3 stably expressed in MDA-MB-231 cells, with or without HER2 overexpression; also called wild-type HER3
Protocol: (§1) Wild-type and various kinds of mutant-type HER3-introduced MDA-MB-231 cells were cultured with RPMI1640 medium (available from Thermo Fisher […] K.K.) containing 10% FBS (available from Hyclone Laboratories, Inc). The cells were separated from the culture plate with TrypLE® Express Enzyme (available from Thermo Fisher […] K.K.), to measure the number of living cells by trypan blue treatment. The same number of living cells were added to a 96-well U-bottom plate, then the cells were precipitated by centrifugation, and the medium was replaced with Stain Buffer (available from Becton, Dickinson and Company). […] The cells were allowed to react on ice for 60 minutes and then washed with Stain Buffer. Further, 100 μL of Stain Buffer or a secondary antibody (Goat anti-Human IgG (H+L) Cross-Adsorbed Secondary Antibody, Alexa Fluor647, Thermo Fisher […] K.K., #A-21445) diluted to 10 μg/mL was added thereto, and the cells were suspended therein. After the cells were allowed to react in the dark on ice for 60 minutes and then washed with Stain Buffer. After the cells were suspended in 100 μL of Stain Buffer, an equal amount of 4% paraformaldehyde phosphate buffer (Wako Pure Chemical Industries, Ltd.) was added thereto, and the mixture was reacted in the dark on ice for 20 minutes. After washing with a Stain Buffer, fluorescence signals were measured using Attune NxT Flow Cytometer (available from Thermo Fisher […] K.K.), and the measurement results were analyzed using FlowJo software (Version 10.5.0, available from Becton, Dickinson and Company).

Flag-HER3 (S846I) = molecular target: T2, Flag-HER3 (S846I) (human, UniProt P21860 1-1342); experiment: as above
T2 construct: The entry already carries the mutation; Stably expressed in MDA-MB-231 cells, with or without HER2 overexpression; also called mutant-type HER3 (S846I)
Protocol: as §1

Flag-HER3 (E928G) = molecular target: T3, Flag-HER3 (E928G) (human, UniProt P21860 1-1342); experiment: as above
T3 construct: The entry already carries the mutation; Stably expressed in MDA-MB-231 cells, with or without HER2 overexpression; also called mutant-type HER3 (E928G)
Protocol: as §1

Flag-HER3 (Q809R) = molecular target: T4, Flag-HER3 (Q809R) (human, UniProt P21860 1-1342); experiment: flow cytometry on HER2-overexpressing and HER3-stably expressing MDA-MB-231 cells, same method as Example 3
T4 construct: The entry already carries the mutation; Stably expressed in HER2-overexpressing MDA-MB-231 cells; also called mutant-type HER3 (Q809R)
Protocol: as §1, with “After the cells were suspended in 100 μL of Stain Buffer, an equal amount of 4% paraformaldehyde phosphate buffer (Wako Pure Chemical Industries, Ltd.) was added thereto, and the mixture was reacted in the dark on ice for 20 minutes.” left out

Flag-HER3 (V104L) = molecular target: T5, Flag-HER3 (V104L) (human, UniProt P21860 1-1342); experiment: flow cytometry on HER2-overexpressing and HER3-stably expressing MDA-MB-231 cells, 0.1 to 100 nM
T5 construct: The entry already carries the mutation; Stably expressed in MDA-MB-231 cells, with or without HER2 overexpression; also called mutant-type HER3 (V104L)
Protocol: as §1

Flag-HER3 (D297Y) = molecular target: T6, Flag-HER3 (D297Y) (human, UniProt P21860 1-1342); experiment: as above
T6 construct: The entry already carries the mutation; Stably expressed in MDA-MB-231 cells, with or without HER2 overexpression; also called mutant-type HER3 (D297Y)
Protocol: as §1

Flag-HER3 (T355I) = molecular target: T7, Flag-HER3 (T355I) (human, UniProt P21860 1-1342); experiment: as above
T7 construct: The entry already carries the mutation; Stably expressed in MDA-MB-231 cells, with or without HER2 overexpression; also called mutant-type HER3 (T355I)
Protocol: as §1

Flag-HER3 (A232V) = molecular target: T8, Flag-HER3 (A232V) (human, UniProt P21860 1-1342); experiment: as above
T8 construct: The entry already carries the mutation; Stably expressed in MDA-MB-231 cells, with or without HER2 overexpression; also called mutant-type HER3 (A232V)
Protocol: as §1

Flag-HER3 (V104M) = molecular target: T9, Flag-HER3 (V104M) (human, UniProt P21860 1-1342); experiment: as above
T9 construct: The entry already carries the mutation; Stably expressed in MDA-MB-231 cells, with or without HER2 overexpression; also called mutant-type HER3 (V104M)
Protocol: as §1

Flag-HER3 (G325R) = molecular target: T10, Flag-HER3 (G325R) (human, UniProt P21860 1-1342); experiment: as above
T10 construct: The entry already carries the mutation; Stably expressed in MDA-MB-231 cells, with or without HER2 overexpression; also called mutant-type HER3 (G325R)
Protocol: as §1

Flag-HER3 (G284R) = molecular target: T11, Flag-HER3 (G284R) (human, UniProt P21860 1-1342); experiment: as above
T11 construct: The entry already carries the mutation; Stably expressed in MDA-MB-231 cells, with or without HER2 overexpression; also called mutant-type HER3 (G284R)
Protocol: as §1

Flag-HER3 (P262H) = molecular target: T12, Flag-HER3 (P262H) (human, UniProt P21860 1-1342); experiment: as above
T12 construct: The entry already carries the mutation; Stably expressed in MDA-MB-231 cells, with or without HER2 overexpression; also called mutant-type HER3 (P262H)
Protocol: as §1

Measured: binding result

B1: HER3-ADC (1) (antibody, human IgG1, kappa, V domains shown)
VH: QVQLQQWGAGLLKPSETLSLTCAVYGGSFSGYYWSWIRQPPGKGLEWIGEINHSGSTNYNPSLKSRVTISVETSKNQFSLKLSSVTAADTAVYYCARDKWTWYFDLWGRGTLVTVSS
VL: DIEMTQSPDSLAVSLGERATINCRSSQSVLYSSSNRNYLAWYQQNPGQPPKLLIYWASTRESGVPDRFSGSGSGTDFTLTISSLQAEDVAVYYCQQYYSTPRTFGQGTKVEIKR
modifications: drug-linker (exatecan derivative) conjugated via a thioether bond to cysteine thiols formed at interchain disulfide sites; drug-linker (exatecan derivative) conjugated via a thioether bond to cysteine thiols formed at interchain disulfide sites; average number of conjugated drug molecules per antibody molecule in the range of 7 to 8
notes: also called anti-HER3 antibody-drug conjugate; conjugate of HER3-Ab (1)
binds: all assays above
